The target of one test is T1, Core_NNIN-es_KKKE.
T1 chain: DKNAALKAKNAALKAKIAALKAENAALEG
The experiment in a line: two-hybrid library CCmax.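 Note: natural log of median RNA to DNA barcode read ratio; higher means stronger binding.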 Particulars: mean of both orientations.

The next test deals with T2, Core_NIII-es_KEKK.
T2 chain: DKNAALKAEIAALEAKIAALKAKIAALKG
The experiment in a line: two-hybrid library CCmax.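 Note: natural log of median RNA to DNA barcode read ratio; higher means stronger binding.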 The conditions noted are these: mean of both orientations.

Another test has as its target T3, Core_NNNI-es_KKKK.
T3 chain: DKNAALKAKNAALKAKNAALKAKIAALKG
The experiment in a line: two-hybrid library CCmax.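 Note: natural log of median RNA to DNA barcode read ratio; higher means stronger binding.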 The conditions noted are these: mean of both orientations.

A further test has as its target T4, Core_NNIN-es_KKKK.
T4 chain: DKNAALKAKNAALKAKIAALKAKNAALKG
The experiment in a line: two-hybrid library CCmax.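 Note: natural log of median RNA to DNA barcode read ratio; higher means stronger binding.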 The conditions noted are these: mean of both orientations.

The next test concerns the target T5, Core_NNII-es_KKKE.
T5 chain: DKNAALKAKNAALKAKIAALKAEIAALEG
The experiment in a line: two-hybrid library CCmax.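 Note: natural log of median RNA to DNA barcode read ratio; higher means stronger binding.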 Particulars: mean of both orientations.

A further test has as its target T6, 4H2585-bA.
T6 chain: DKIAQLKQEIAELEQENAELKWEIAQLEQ
The experiment in a line: two-hybrid library CCNG1.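 Note: natural log of median RNA to DNA barcode read ratio; higher means stronger binding.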

Another test has as its target T7, 4H3041-bA.
T7 chain: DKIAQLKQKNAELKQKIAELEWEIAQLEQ
The experiment in a line: two-hybrid library CCNG1.

The next test has as its target T8, 4H2760-bA.
T8 chain: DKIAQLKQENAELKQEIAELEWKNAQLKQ
The experiment in a line: two-hybrid library CCNG1.

The next test addresses T9, 4H2444-bA.
T9 chain: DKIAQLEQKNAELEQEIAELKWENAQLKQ
The experiment in a line: two-hybrid library CCNG1.

The target in another test is T10, 4H2859-bA.
T10 chain: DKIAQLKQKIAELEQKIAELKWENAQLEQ
The experiment in a line: two-hybrid library CCNG1.

In the next test the target is T11, 4H2143-bA.
T11 chain: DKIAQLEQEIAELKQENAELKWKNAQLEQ
The experiment in a line: two-hybrid library CCNG1.

The target of a further test is T12, 4H949-bA.
T12 chain: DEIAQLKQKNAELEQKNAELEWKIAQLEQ
The experiment in a line: two-hybrid library CCNG1.

In another test the target is T13, 4H3381-bA.
T13 chain: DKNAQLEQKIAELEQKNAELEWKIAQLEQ
The experiment in a line: two-hybrid library CCNG1.

Another test has as its target T14, 4H2233-bA.
T14 chain: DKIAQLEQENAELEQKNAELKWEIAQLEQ
The experiment in a line: two-hybrid library CCNG1.

For another test, the target named is T15, 4H264-bA.
T15 chain: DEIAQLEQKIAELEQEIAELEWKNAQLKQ
The experiment in a line: two-hybrid library CCNG1.

In another test the target is T16, 4H2931-bA.
T16 chain: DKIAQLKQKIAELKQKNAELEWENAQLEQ
The experiment in a line: two-hybrid library CCNG1.

The next test concerns the target T17, 4H2518-bA.
T17 chain: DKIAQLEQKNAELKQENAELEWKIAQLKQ
The experiment in a line: two-hybrid library CCNG1.

The target in another test is T18, 4H796-bA.
T18 chain: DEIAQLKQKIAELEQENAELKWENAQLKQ
The experiment in a line: two-hybrid library CCNG1.

Another test deals with T19, 4H235-bA.
T19 chain: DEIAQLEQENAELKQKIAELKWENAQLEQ
The experiment in a line: two-hybrid library CCNG1.

The next test addresses T20, 4H3364-bA.
T20 chain: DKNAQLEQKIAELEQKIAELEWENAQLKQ
The experiment in a line: two-hybrid library CCNG1.

The next test addresses T21, 4H349-bA.
T21 chain: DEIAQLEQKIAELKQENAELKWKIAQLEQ
The experiment in a line: two-hybrid library CCNG1.

The target in a further test is T22, 4H3628-bA.
T22 chain: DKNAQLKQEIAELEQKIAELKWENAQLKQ
The experiment in a line: two-hybrid library CCNG1.

Another test has as its target T23, 4H2162-bA.
T23 chain: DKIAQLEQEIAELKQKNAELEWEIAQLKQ
The experiment in a line: two-hybrid library CCNG1.

The next test deals with T24, 4H932-bA.
T24 chain: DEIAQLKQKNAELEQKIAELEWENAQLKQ
The experiment in a line: two-hybrid library CCNG1.

In another test the target is T25, 4H730-bA.
T25 chain: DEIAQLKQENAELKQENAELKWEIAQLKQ
The experiment in a line: two-hybrid library CCNG1.

For another test, the target named is T26, 4H166-bA.
T26 chain: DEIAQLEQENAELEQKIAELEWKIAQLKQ
The experiment in a line: two-hybrid library CCNG1.

For the next test, the target named is T27, 4H56-bA.
T27 chain: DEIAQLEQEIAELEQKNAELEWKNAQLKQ
The experiment in a line: two-hybrid library CCNG1.

Another test deals with T28, 4H3297-bA.
T28 chain: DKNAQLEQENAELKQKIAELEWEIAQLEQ
The experiment in a line: two-hybrid library CCNG1.

The target of the next test is T29, 4H2253-bA.
T29 chain: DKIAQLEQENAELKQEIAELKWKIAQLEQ
The experiment in a line: two-hybrid library CCNG1.

In a further test the target is T30, 4H4073-bN.
T30 chain: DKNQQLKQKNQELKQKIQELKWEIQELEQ
The experiment in a line: two-hybrid library CCNG1.

The target in another test is T31, Core_NNIN-es_KKEK.
T31 chain: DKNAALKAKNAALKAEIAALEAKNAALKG
The experiment in a line: two-hybrid library CCmax. Particulars: mean of both orientations.

The next test deals with T32, Core_NIIN-es_KKEK.
T32 chain: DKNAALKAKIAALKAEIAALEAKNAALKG
The experiment in a line: two-hybrid library CCmax. Particulars: mean of both orientations.

A further test has as its target T33, P8mSN.
T33 chain: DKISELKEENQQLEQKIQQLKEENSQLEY
The experiment in a line: two-hybrid library CCNG1.

For another test, the target named is T34, P2mSN.
T34 chain: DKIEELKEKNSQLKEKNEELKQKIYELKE
The experiment in a line: two-hybrid library CCNG1.

A further test addresses T35, P12mSN.
T35 chain: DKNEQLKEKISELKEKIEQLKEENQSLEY
The experiment in a line: two-hybrid library CCNG1.

A further test concerns the target T36, P6mSN.
T36 chain: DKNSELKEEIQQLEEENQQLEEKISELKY
The experiment in a line: two-hybrid library CCNG1.

Another test addresses T37, P3mSN.
T37 chain: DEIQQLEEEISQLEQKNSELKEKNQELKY
The experiment in a line: two-hybrid library CCNG1.

The target of another test is T38, P10mSN.
T38 chain: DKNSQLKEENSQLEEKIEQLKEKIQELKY
The experiment in a line: two-hybrid library CCNG1.

In the next test the target is T39, P1mSN.
T39 chain: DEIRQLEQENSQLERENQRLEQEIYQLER
The experiment in a line: two-hybrid library CCNG1.

The next test concerns the target T40, P9mSN.
T40 chain: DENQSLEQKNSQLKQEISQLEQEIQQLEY
The experiment in a line: two-hybrid library CCNG1.

The next test has as its target T41, P5mSN.
T41 chain: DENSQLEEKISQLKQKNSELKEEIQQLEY
The experiment in a line: two-hybrid library CCNG1.

In the next test the target is T42, P11mSN.
T42 chain: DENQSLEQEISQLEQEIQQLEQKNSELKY
The experiment in a line: two-hybrid library CCNG1.

In the next test the target is T43, P7mSN.
T43 chain: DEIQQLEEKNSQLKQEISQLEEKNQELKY
The experiment in a line: two-hybrid library CCNG1.

For another test, the target named is T44, P4mSN.
T44 chain: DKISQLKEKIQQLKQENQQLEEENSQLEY
The experiment in a line: two-hybrid library CCNG1.

A further test addresses T45, P11A.
T45 chain: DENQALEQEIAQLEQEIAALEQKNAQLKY
The experiment in a line: two-hybrid library CCNG1.

A further test deals with T46, P7A.
T46 chain: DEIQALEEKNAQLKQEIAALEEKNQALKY
The experiment in a line: two-hybrid library CCNG1.

The target of a further test is T47, P6A.
T47 chain: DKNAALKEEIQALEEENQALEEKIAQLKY
The experiment in a line: two-hybrid library CCNG1.

The next test deals with T48, P8A.
T48 chain: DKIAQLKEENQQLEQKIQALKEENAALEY
The experiment in a line: two-hybrid library CCNG1.

The target in another test is T49, P9A.
T49 chain: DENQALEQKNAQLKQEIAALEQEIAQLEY
The experiment in a line: two-hybrid library CCNG1.

A further test concerns the target T50, P10A.
T50 chain: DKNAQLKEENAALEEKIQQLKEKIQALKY
The experiment in a line: two-hybrid library CCNG1.

The target in another test is T51, P2A.
T51 chain: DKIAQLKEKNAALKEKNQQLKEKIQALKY
The experiment in a line: two-hybrid library CCNG1.

The target of the next test is T52, P5A.
T52 chain: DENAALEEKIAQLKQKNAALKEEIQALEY
The experiment in a line: two-hybrid library CCNG1.

For another test, the target named is T53, P1A.
T53 chain: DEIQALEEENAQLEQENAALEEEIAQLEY
The experiment in a line: two-hybrid library CCNG1.

In a further test the target is T54, P12A.
T54 chain: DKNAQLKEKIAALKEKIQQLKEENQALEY
The experiment in a line: two-hybrid library CCNG1.

The target in another test is T55, P4A.
T55 chain: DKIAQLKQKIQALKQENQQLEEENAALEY
The experiment in a line: two-hybrid library CCNG1.

Another test deals with T56, P3A.
T56 chain: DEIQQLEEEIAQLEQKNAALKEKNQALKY
The experiment in a line: two-hybrid library CCNG1.

As for DENAALEAENAALEAEIAALEAKNAALKG [Core_NNIN-es_EEEK], the interaction score with Core_NNIN-es_KKKE worked out at 2.07.
In turn, DENAALEAKIAALKAEIAALEAEIAALEG [Core_NIII-es_EKEE] had an interaction score with Core_NIII-es_KEKK of 1.92.
For the molecule DENAALEAENAALEAENAALEAEIAALEG [Core_NNNI-es_EEEE], the interaction score with Core_NNNI-es_KKKK turned out to be 2.16.
In the test with Core_NNIN-es_KKKK, DENAALEAENAALEAEIAALEAENAALEG [Core_NNIN-es_EEEE] gave an interaction score of 1.83.
In turn, DENAALEAENAALEAEIAALEAKIAALKG [Core_NNII-es_EEEK] had an interaction score with Core_NNII-es_KKKE of 2.42.
With DEIAQLEQENAELEQKIAELEWKIAQLKQ [4H166-bA], the interaction score with 4H2585-bA is -0.344; with 4H3041-bA, 1.54; with 4H2760-bA, 1.38; with 4H2444-bA, 0.00294; with 4H2859-bA, 1.07; with 4H2143-bA, -0.442. Besides, the interaction score in the test with 4H949-bA was 0.655; with 4H3381-bA, 0.0741; with 4H2233-bA, 0.472; with 4H264-bA, 1.18; with 4H2931-bA, 1.56; with 4H2518-bA, 2.14. Besides, the interaction score in the test with 4H796-bA was -0.288; with 4H235-bA it was 0.308; in the test with 4H3364-bA it was -0.668; with 4H349-bA, -0.678; with 4H3628-bA it was -0.111; with 4H2162-bA, 0.273. Further, the interaction score with 4H932-bA was -0.303; in the test with 4H730-bA, -0.818; with 4H166-bA, 1.79; with 4H56-bA it was -0.289; with 4H3297-bA, 1.92; with 4H2253-bA, 0.212. Moreover, the interaction score with 4H4073-bN amounted to 1.76.
With DENAALEAENAALEAKIAALKAENAALEG [Core_NNIN-es_EEKE], the interaction score with Core_NNIN-es_KKEK came out at 2.2.
Molecule DENAALEAEIAALEAKIAALKAENAALEG [Core_NIIN-es_EEKE] gave an interaction score in the test with Core_NIIN-es_KKEK of 1.96.
Turning to DKNSQLKEENSQLEEKIEQLKEKIQELKY [P10mSN], the interaction score is -0.586 with P8mSN; -1.62 in the test with P2mSN; -0.911 with P12mSN; -0.212 with P6mSN; -0.696 in the test with P3mSN; 0.0645 with P10mSN. In addition, the interaction score was 0.0169 with P1mSN; 0.647 with P9mSN; -0.891 with P5mSN; -0.495 with P11mSN; 0.521 with P7mSN; -0.959 with P4mSN.
Take DKNAQLKEENAALEEKIQQLKEKIQALKY [P10A]: the interaction score with P11A is 0.405; with P7A, 1.36; in the test with P6A it was 0.00329; with P8A, -0.507; in the test with P9A, 2.37; in the test with P10A, -0.322. In addition, the interaction score with P2A was -0.904; with P5A it was -0.424; in the test with P1A it was 0.349; in the test with P12A, -0.26; in the test with P4A, -0.619; with P3A, 0.616.

The values are drawn from PMC10397247.
